Measurements as given in paper PMC2677865.
One block for each molecule: values may come before it.

Key:
Experiment in all cases: two-hybrid
[1] = molecular target: GAL4-DB-CK2α′ fusion protein (mouse) (UniProt O54833)
BD-CK2α = BD-CK2α (UniProt Q60737)
BD-CK2β = BD-CK2β (UniProt P67871)
BD-CKT2 (mouse) = BD-CKT2 (mouse) (UniProt Q8CH19)
BD-CKT2 138-276 (mouse) = BD-CKT2 138-276 (mouse) (UniProt Q8CH19)
BD-CKT2 1-137 (mouse) = BD-CKT2 1-137 (mouse) (UniProt Q8CH19)

UniProt Q60737, sequence (Q60737 whole entry): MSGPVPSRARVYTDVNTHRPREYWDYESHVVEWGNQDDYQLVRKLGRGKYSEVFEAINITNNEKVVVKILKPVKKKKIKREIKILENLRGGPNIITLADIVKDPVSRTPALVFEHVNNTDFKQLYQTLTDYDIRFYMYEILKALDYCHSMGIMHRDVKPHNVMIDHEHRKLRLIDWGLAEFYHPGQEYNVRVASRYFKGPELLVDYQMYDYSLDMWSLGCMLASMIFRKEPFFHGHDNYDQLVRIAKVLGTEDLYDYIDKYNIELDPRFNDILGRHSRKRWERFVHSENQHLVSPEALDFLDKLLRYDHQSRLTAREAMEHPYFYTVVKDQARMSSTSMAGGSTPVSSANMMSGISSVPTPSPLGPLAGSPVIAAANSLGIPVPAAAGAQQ
UniProt P67871, sequence (P67871 whole entry): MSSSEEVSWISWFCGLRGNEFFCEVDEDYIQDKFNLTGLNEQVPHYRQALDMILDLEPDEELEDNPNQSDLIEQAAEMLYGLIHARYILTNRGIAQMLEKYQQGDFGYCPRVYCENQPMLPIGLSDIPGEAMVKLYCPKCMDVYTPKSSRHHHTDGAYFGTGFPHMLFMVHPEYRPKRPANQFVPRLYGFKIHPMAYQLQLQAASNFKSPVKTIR

- β-Gal activity [1]: 5.8
- β-Gal activity (BD-CK2α): 1
- β-Gal activity (BD-CK2β): < 0.05
Molecule: CKT2 (CK2 Target protein 2), full length, in pACT2 (from UniProt Q8CH19 1-720) (natural protein)

- β-Gal activity (BD-CKT2 (mouse)): 5.2
- β-Gal activity (BD-CKT2 138-276 (mouse)): 6.5
- β-Gal activity (BD-CKT2 1-137 (mouse)): 2.8
B1: CK2α′ as the active (activation) domain fusion (natural protein)
chain: MPGPAAGSRARVYAEVNSLRSREYWDYEAHVPSWGNQDDYQLVRKLGRGKYSEVFEAINITNNERVVVKILKPVKKKKIKREVKILENLRGGTNIIKLIDTVKDPVSKTPALVFEYINNTDFKQLYQILTDFDIRFYMYELLKALDYCHSKGIMHRDVKPHNVMIDHQQKKLRLIDWGLAEFYHPAQEYNVRVASRYFKGPELLVDYQMYDYSLDMWSLGCMLASMIFRKEPFFHGQDNYDQLVRIAKVLGTDELYGYLKKYHIDLDPHFNDILGQHSRKRWENFIHSENRHLVSPEALDLLDKLLRYDHQQRLTAKEAMEHPYFYPVVKEQSQPCAENTVLSSGLTAAR
